Laboratory results taken from publication PMC11406360, “The enzymatic oxygen sensor cysteamine dioxygenase binds its protein substrates through their N-termini” (The Journal of Biological Chemistry, 2024).
Where a chain is given by its changes, count along the chain named. Names may count otherwise. *1 amine or outer side, *2 acyl side, *3 side chain or, on linkers, in order; H or OH if unused. Where a SMILES comes first, the peptide text is derived from it. Where no end group is shown, it is not given here. [ ]: non-standard residue; d: D form. Cys(O2H) = cysteine sulfinic acid (N-terminal cysteine sulfinylated), O=C([C@H](CS(=O)O[*:3])N[*:1])[*:2]

T1: 2-aminoethanethiol (cysteamine) dioxygenase (ADO), biotinylated, for SPR (human, UniProt Q96SZ5 1-270, biotin (N terminally biotinylated; 0.2 mM biotin added at induction))
T1 construct: 2-aminoethanethiol (cysteamine) dioxygenase (ADO), human, UniProt Q96SZ5, full length; In the chelation experiments the metal was removed and iron put back on the chip (see assays a2, a3); Used also as the ADO of the functional rows, although the enzyme assays used the pET28a-ADO construct (N-terminal His tag); also called WT ADO; native ADO; source: E. coli Rosetta2(DE3), pQE80L-Navi construct, …
T1 sequence (looked up): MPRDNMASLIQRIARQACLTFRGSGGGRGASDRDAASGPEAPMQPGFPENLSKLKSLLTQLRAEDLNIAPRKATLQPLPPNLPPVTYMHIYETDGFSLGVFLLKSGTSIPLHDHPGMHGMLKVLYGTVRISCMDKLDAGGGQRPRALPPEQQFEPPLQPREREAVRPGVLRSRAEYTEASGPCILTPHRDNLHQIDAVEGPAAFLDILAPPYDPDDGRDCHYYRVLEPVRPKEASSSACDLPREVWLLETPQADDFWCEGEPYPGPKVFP

T2: 2-aminoethanethiol (cysteamine) dioxygenase (ADO), biotinylated, for SPR (human, UniProt Q96SZ5 1-270, biotin (N terminally biotinylated; 0.2 mM biotin added at induction))
T2 chain: T1 sequence (looked up)

T3: ADO (2-aminoethanethiol dioxygenase), iron-bound wild type (Homo sapiens, UniProt Q96SZ5)
T3 construct: Full-length human ADO (UniProt ID: Q96SZ5) was cloned; made in house; host or cells: Rosetta2(DE3) Escherichia coli
T3 sequence (Q96SZ5 1-270): T1 sequence (looked up)

B1: full-length RGS5 (RGS5^FL) (natural protein)
chain: CKGLAALPHSCLERAKEIKIKLGILLQKPDSVGDLVIPYNEKPEKPAKTQKTSLDEALQWRDSLDKLLQNNYGLASFKSFLKSEFSEENLEFWIACEDYKKIKSPAKMAEKAKQIYEEFIQTEAPKEVNIDHFTKDITMKNLVEPSLSSFDMAQKRIHALMEKDSLPRFVRSEFYQELIK
B2: RGS5^FL-C2S (natural protein)
chain: B1 chain with C1S
B3: IL32-L7A peptide (peptide, UniProt P24001 2-15, looked up)
peptide: CFPKVASDDMKKLK
notes: IL32 residues 2-15 (initiating methionine denoted as 1), L7A; source: synthetic peptide (SPPS, HPLC purified)
B4: IL32-K5A peptide (peptide, UniProt P24001 2-15, looked up)
peptide: CFPAVLSDDMKKLK
notes: IL32 residues 2-15 (initiating methionine denoted as 1), K5A; source: synthetic peptide (SPPS, HPLC purified)
B5: RGS5-C2S peptide (peptide, UniProt O15539 2-15, looked up)
peptide: SKGLAALPHSCLER
notes: RGS5 residues 2-15 (initiating methionine denoted as 1), Nt-cys to serine; source: synthetic peptide (SPPS, HPLC purified)
B6: IL32-P4A peptide (peptide, UniProt P24001 2-15, looked up)
peptide: CFAKVLSDDMKKLK
notes: IL32 residues 2-15 (initiating methionine denoted as 1), P4A; source: synthetic peptide (SPPS, HPLC purified)
B7: IL32-C2S peptide (peptide, UniProt P24001 2-15, looked up)
peptide: SFPKVLSDDMKKLK
notes: IL32 residues 2-15 (initiating methionine denoted as 1), Nt-cys to serine; source: synthetic peptide (SPPS, HPLC purified)
B8: IL32-F3A peptide (peptide, UniProt P24001 2-15, looked up)
peptide: CAPKVLSDDMKKLK
notes: IL32 residues 2-15 (initiating methionine denoted as 1), F3A; source: synthetic peptide (SPPS, HPLC purified)
B9: RGS5-G4A peptide (peptide, UniProt O15539 2-15, looked up)
peptide: CKALAALPHSCLER
notes: RGS5 residues 2-15 (initiating methionine denoted as 1), G4A; source: synthetic peptide (SPPS, HPLC purified)
B10: RGS5-G4K peptide (peptide, UniProt O15539 2-15, looked up)
peptide: CKKLAALPHSCLER
notes: RGS5 residues 2-15 (initiating methionine denoted as 1), G4K; source: synthetic peptide
B11: RGS5-K3A peptide (peptide, UniProt O15539 2-15, looked up)
peptide: CAGLAALPHSCLER
notes: RGS5 residues 2-15 (initiating methionine denoted as 1), K3A; source: synthetic peptide (SPPS, HPLC purified)
B12: RGS5-K3D peptide (peptide, UniProt O15539 2-15, looked up)
peptide: CDGLAALPHSCLER
notes: RGS5 residues 2-15 (initiating methionine denoted as 1), K3D; source: synthetic peptide
B13: RGS5-K3W peptide (peptide, UniProt O15539 2-15, looked up)
peptide: CWGLAALPHSCLER
notes: RGS5 residues 2-15 (initiating methionine denoted as 1), K3W; source: synthetic peptide
B14: RGS5-K3R peptide (peptide, UniProt O15539 2-15, looked up)
peptide: CRGLAALPHSCLER
notes: RGS5 residues 2-15 (initiating methionine denoted as 1), K3R; source: synthetic peptide
B15: RGS5-K3L peptide (peptide, UniProt O15539 2-15, looked up)
peptide: CLGLAALPHSCLER
notes: RGS5 residues 2-15 (initiating methionine denoted as 1), K3L; source: synthetic peptide
B16: RGS5-K3Y peptide (peptide, UniProt O15539 2-15, looked up)
peptide: CYGLAALPHSCLER
notes: RGS5 residues 2-15 (initiating methionine denoted as 1), K3Y; source: synthetic peptide
B17: RGS5^FL-C2A: full-length RGS5 C2A mutant (protein)
chain: MAKGLAALPHSCLERAKEIKIKLGILLQKPDSVGDLVIPYNEKPEKPAKTQKTSLDEALQWRDSLDKLLQNNYGLASFKSFLKSEFSEENLEFWIACEDYKKIKSPAKMAEKAKQIYEEFIQTEAPKEVNIDHFTKDITMKNLVEPSLSSFDMAQKRIHALMEKDSLPRFVRSEFYQELIK
modifications: left off: His tag, N-terminal, cleaved | SUMO, N-terminal, cleaved
notes: full-length RGS5 C2A mutant

Target: T1, 2-aminoethanethiol (cysteamine) …
Test: SPR; Biacore T200; biotinylated ADO immobilized on a Biotin CAP chip (∼2500 to 3000 RU), peptide/protein substrates injected; 4 °C; 20 mM Hepes pH 7.5, 500 mM NaCl, 10 mM DTT, 0.1% tween-20; 50 μl/min; multicycle, equilibrium steady state affinity 1:1 binding model
Conditions: both partners purified

Molecule | Kd [nM] | binding result
B1 | 3000 ± 58 | 
B2 | 63000 ± 610 | 
B3 | 570 ± 12 | 
B4 | 140 ± 2 | 
B5 | ~40000 | 
B6 | 150 ± 1.2 | 
B7 | ~40000 | 
B8 | 2200 ± 72 | 
B9 | 710 ± 15 | 
B10 | 12000 ± 1500 | 
CKPLAALPHSCLER (peptide, UniProt O15539 2-15, looked up, source: synthetic peptide) [RGS5-G4P peptide] |  | binds
B11 | 540 ± 88 | 
B12 | 39000 ± 1200 | 
B13 |  | binds
B14 |  | binds
B15 |  | binds
B16 |  | binds

Target: T2, 2-aminoethanethiol (cysteamine) …
Test: SPR
Conditions: not given

Molecule | Kd [nM]
CKGLAALPHACLER [RGS5-S11A] | 350
CKGLAALPHSCLEA [RGS5-R15A] | 210
CKGLAALAHSCLER [RGS5-P9A] | 250
CKGLAALPHSALER [RGS5-C12A] | 300

Target: T3, ADO (2-aminoethanethiol dioxygenase), iron-bound wild type
Test: SPR binding of peptide/protein substrates to immobilised ADO
Conditions: SPR steady state, 1:1 binding model, biotinylated ADO on Biotin CAP chip, 4 °C, 20 mM Hepes pH 7.5, 500 mM NaCl, 10 mM DTT, 0.1% tween-20; geometric mean (± SD) of minimum three independent measurements
Source text: ADO catalyzes the O2-dependent sulfinylation of Nt-cys residues, which reportedly bind to the iron cofactor in a monodentate arrangement through ligation of the thiol group ([14], [15]). To test the importance of Nt-cys modifications and substitutions on ADO association, a SPR assay was established. […] Data collected under steady state conditions is presented in the main text and kinetic constants are provided in the Tables S1–S8 (alongside steady state measurements). All measurements were collected at 4 °C to minimize enzyme activity.
SPR measurements were made using a Biacore T200 (Cytiva) instrument and data were analyzed using the Biacore Insight Evaluation Software (Cytiva; https://www.cytivalifesciences.com/en/us/shop/protein-analysis/spr-label-free-analysis/spr-software-and-extensions/biacore-insight-evaluation-software-p-23528). Biotinylated-ADO was immobilized on a Biotin CAP chip (Cytiva) with a target density of ∼2500 to 3000 RU and peptide/protein substrates were injected over the chip. […] A buffer comprising 20 mM Hepes pH 7.5, 500 mM NaCl, 10 mM DTT, and 0.1% (v/v) tween-20 was used as the running buffer at a flow rate of 50 μl/min.
For metal-chelation experiments, a mixture of 10 mM 1, 10-phenanthroline and 100 mM EDTA (pH 8) was injected onto the chip using 10 × 60 s injections at a 100 μl/min flow rate. […] The instrument and chip were primed into buffer excluding reducing agents before conducting metal chelation and iron reconstitution.

Molecule | Equilibrium dissociation constant KD
RGS5-C2A: RGS5 peptide with Nt-cys to alanine (AKGLAALPHSCLER) | No binding
RGS5-Ox: Nt-sulfinylated RGS5 peptide acquired through preincubation with ADO ([Cys(O2H)]KGLAALPHSCLER) | No binding
K3W: RGS5 third position mutant peptide (CWGLAALPHSCLER) | the most tolerated
K3Y: RGS5 third position mutant peptide (CYGLAALPHSCLER) | the most tolerated
K3L: RGS5 third position mutant peptide (CLGLAALPHSCLER) | the most tolerated
Ac-RGS5: Nt-acetylated RGS5 peptide (Ac-CKGLAALPHSCLER; cysteine pairing not given here) | No binding
K3R: RGS5 third position mutant peptide (CRGLAALPHSCLER) | the most tolerated
B17 | prevented binding

Same assay, conditions: SPR steady state, 1:1 binding model, biotinylated ADO on Biotin CAP chip, 4 °C, 20 mM Hepes pH 7.5, 500 mM NaCl, 10 mM DTT, 0.1% tween-20; geometric mean (± SD) of minimum three independent measurements; read-out: Equilibrium dissociation constant KD

Molecule | Kd [nM]
NC(=O)[C@@H]1CCCN1C(=O)[C@H](Cc1ccccc1)NC(=O)[C@@H](N)CS [IL32 tripeptide] (H-Cys-Phe-Pro-NH2; C-terminus assumed) | 130 ± 3.7
CC(C)C[C@H](NC(=O)CNC(=O)[C@H](CCCCN)NC(=O)[C@@H](N)CS)C(=O)N[C@@H](C)C(=O)N[C@@H](C)C(=O)N[C@@H](CC(C)C)C(=O)N1CCC[C@H]1C(=O)N[C@@H](Cc1c[nH]cn1)C(=O)N[C@@H](CO)C(=O)N[C@@H](CS)C(=O)N[C@@H](CC(C)C)C(=O)N[C@@H](C)C(=O)N[C@@H](CCCNC(=N)N)C(N)=O [RGS5-E14A] (H-CKGLAALPHSCLAR-NH2) | 260 ± 42
SKGLAALPHSCLER-NH2 [RGS5-C2S] | 42000 ± 5500
CC(C)C[C@H](NC(=O)CNC(=O)[C@H](CCCCN)NC(=O)[C@@H](N)CS)C(=O)N[C@@H](C)C(=O)N[C@@H](C)C(=O)N[C@@H](CC(C)C)C(=O)N1CCC[C@H]1C(=O)N[C@@H](Cc1c[nH]cn1)C(=O)N[C@@H](CO)C(=O)N[C@@H](CS)C(=O)N[C@@H](C)C(=O)N[C@@H](CCC(=O)O)C(=O)N[C@@H](CCCNC(=N)N)C(N)=O [RGS5-L13A] (H-CKGLAALPHSCAER-NH2) | 260 ± 32
CC(C)C[C@H](NC(=O)CNC(=O)[C@H](CCCCN)NC(=O)[C@@H](N)CS)C(=O)N[C@@H](C)C(=O)N[C@@H](C)C(=O)N[C@@H](CC(C)C)C(=O)N[C@@H](C)C(=O)N[C@@H](Cc1c[nH]cn1)C(=O)N[C@@H](CO)C(=O)N[C@@H](CS)C(=O)N[C@@H](CC(C)C)C(=O)N[C@@H](CCC(=O)O)C(=O)N[C@@H](CCCNC(=N)N)C(N)=O [RGS5-P9A] (H-CKGLAALAHSCLER-NH2) | 250 ± 23

Same assay, conditions: SPR, 4 °C; relative to native IL32 peptide

Molecule | Fold improvement in binding affinity (stronger) relative to native 14-residue peptide
H-CFPAVLSDDMKKLK-NH2 (C-terminus assumed) [IL32-K5A] | approximately 2 fold
NC(=O)[C@@H]1CCCN1C(=O)[C@H](Cc1ccccc1)NC(=O)[C@@H](N)CS [IL32 tripeptide] (H-Cys-Phe-Pro-NH2; C-terminus assumed) | ~2 fold
H-CFAKVLSDDMKKLK-NH2 (C-terminus assumed) [IL32-P4A] | approximately 2 fold

Same assay, conditions: SPR, 4 °C; relative to native RGS5 or IL32 peptide

Molecule | Fold decrease in binding affinity (weaker/higher KD) relative to native 14-residue peptide [fold]
H-CAPKVLSDDMKKLK-NH2 (C-terminus assumed) [IL32-F3A] | ~8
